The target in assay [1] is T1, MMP-2 (Homo sapiens, UniProt P08253).
T1 construct: purchased Sigma-Aldrich, USA
T1 sequence (P08253 110-660): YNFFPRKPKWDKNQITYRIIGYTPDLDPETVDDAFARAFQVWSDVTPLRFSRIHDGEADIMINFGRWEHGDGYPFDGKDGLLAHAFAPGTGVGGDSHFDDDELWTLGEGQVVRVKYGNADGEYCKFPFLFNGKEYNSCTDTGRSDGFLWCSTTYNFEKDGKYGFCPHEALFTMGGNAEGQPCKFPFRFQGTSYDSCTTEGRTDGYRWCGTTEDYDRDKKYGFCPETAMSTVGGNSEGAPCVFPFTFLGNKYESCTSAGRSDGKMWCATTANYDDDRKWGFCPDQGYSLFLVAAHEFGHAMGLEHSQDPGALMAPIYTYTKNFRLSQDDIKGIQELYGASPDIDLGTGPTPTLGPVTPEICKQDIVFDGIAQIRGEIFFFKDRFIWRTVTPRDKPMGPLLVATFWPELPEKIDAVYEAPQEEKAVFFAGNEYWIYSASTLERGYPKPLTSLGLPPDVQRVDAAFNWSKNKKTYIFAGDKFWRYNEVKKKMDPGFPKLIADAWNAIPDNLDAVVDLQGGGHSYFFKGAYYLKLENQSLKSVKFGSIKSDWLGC
The assay is described as follows: Test of MMP-2 suppressor activity and specificity with AuNPs/MCH-gelatin sensing platform. The format is biochemical. The note with it: 37° C., 30 minutes; for suppression of MMP-2 activity (ratios A625/A525 versus control group): suppressor solution 10 mM, 0.5 μL MMP-2 (100 ng/μL), FIG. 6. On the procedure: Buffer solutions containing different concentrations of ONO-4817 were added respectively into the solution of AuNPs/MCH-gelatin in a cuvette, and the concentrations of the solutions of AuNPs/MCH-gelatin were adjusted to give an OD525=1.
(§1) Then, a solution of a highly concentrated proteinase suppressor ONO-4817 or A1AT (10 mM) was added to give a mixture. The mixture was placed in a water bath at 37° C. for 30 minutes to allow the reaction. A change in wavelength was measured by a spectrophotometer, and the ratios (A625/A525) of the values measured at wavelengths of 625 nm and 525 nm were calculated.

The subject of the next assay is trypsin. The assay is described as follows: Specificity test of proteinase suppressors with AuNPs/MCH-gelatin sensing platform, trypsin. As to conditions: suppressor solution 10 mM; 0.5 μL trypsin (100 ng/μL); 37° C., 30 minutes; FIG. 6. The format is biochemical. On the procedure:
as §1

In assay [2] the target is T1, MMP-2. The note with it: read-out: enzyme inhibition constant (Ki); cited from earlier work.
The subject of another assay is AuNPs/MCH-gelatin. The assay is described as follows: Activity test of proteinase (trypsin) on AuNPs/MCH-gelatin. The format is biochemical. As to conditions: 37° C., 10 minutes. From the text: Different concentrations of trypsin were used for detection.
Ratios (A625/A525) of the measured values at wavelengths of 625 nm and 525 nm are used as a basis for detection, so as to correct the error of waveform overlapping caused by changes to the sizes of the AuNPs. The ratios (A625/A525) of the groups are in the following: 0.2127 for A, 0.2131 for B, 0.2134 for C, 0.2554 for D, 0.4236 for E, 0.5674 for F, 0.6114 for G and 0.6484 for H. The ratios and the trypsin concentrations are shown in FIG. 3I, wherein when the trypsin concentrations are from 1.25×10^−1 U to 1.25×10^2 U, the wavelength changes and the trypsin concentrations are positively associated.

The text below walks through data of US20100311605A1, “SENSING PLATFORM” (NATIONAL CHIAO TUNG UNIVERSITY, priority 2009, published 2010).

What is called Ki is a measure of affinity in units of concentration, obtained from inhibition or displacement. Regarding `CCOCOC[C@H](C[C@H](C)C(=O)NO)NC(=O)c1ccc(Oc2ccccc2)cc1` [ONO-4817], on MMP-2 [1] (different concentrations of ONO-4817 (0.0125 to 512 nM), 0.5 μL MMP-2 (100 ng/μL) in 200 μL AuNPs/MCH-gelatin, FIG. 5), the “suppression of MMP-2 activity (waveform change, A625/A525)” value was “can suppress the activity of MMP-2”. In addition, on MMP-2 [1], the “suppression of MMP-2 activity (ratios A625/A525 versus control group)” value is on record as “can suppress the activity of MMP-2”. In addition, the “suppression of trypsin activity (ratios A625/A525 versus control group)” value in the assay on trypsin is “significantly increase”. In addition, the inhibition constant (Ki) on MMP-2 [2] was 0.72 nM.
With “A1AT: trypsin suppressor; cannot suppress the activity of MMPs”, the “suppression of MMP-2 activity (ratios A625/A525 versus control group)” value with MMP-2 [1] is reported as “not suppressed”. The “suppression of trypsin activity (ratios A625/A525 versus control group)” value in the assay with trypsin is “can effectively suppress the activity of trypsin”.

B1: trypsin: proteinase detected by the sensing platform (protein, UniProt P00760 24-246, looked up)
Serine protease 1: IVGGYTCGANTVPYQVSLNSGYHFCGGSLINSQWVVSAAHCYKSGIQVRLGEDNINVVEGNEQFISASKSIVHPSYNSNTLNNDIMLIKLKSAASLNSRVASISLPTSCASAGTQCLISGWGNTKSSGTSYPDVLKCLKAPILSDSSCKSAYPGQITSNMFCAGYLEGGKDSCQGDSGGPVVCSGKLQGIVSWGSGCAQKNKPGVYTKVCNYVSWIKQTIASN
With B1, the “ratio A625/A525” value in the assay with AuNPs/MCH-gelatin (group B, 1.25×10^−3 U of trypsin) worked out at 0.2131; in the assay on AuNPs/MCH-gelatin (group C, 1.25×10^−2 U of trypsin), 0.2134; in the assay on AuNPs/MCH-gelatin (group D, 1.25×10^−1 U of trypsin), 0.2554; with AuNPs/MCH-gelatin (group E, 1.25×10^0 U of trypsin), 0.4236; in the assay on AuNPs/MCH-gelatin (group F, 1.25×10^1 U of trypsin), 0.5674; with AuNPs/MCH-gelatin (group G, 1.25×10^2 U of trypsin) it was 0.6114. Besides, the “ratio A625/A525” value in the assay with AuNPs/MCH-gelatin (group H, 1.25×10^3 U of trypsin) is 0.6484.
